Target: the molecule itself
Assay: cryo-EM structure

B1: FljK T103C N130S, straightened flagellar filament (natural protein, C. crescentus, UniProt P18913 1-273, looked up)
chain: MALNSINTNAGAMIALQNLNGTNSELTTVQQRINTGKKIASAKDNGAIWATAKNQSATAASMNAVKDSLQRGQSTIDVALAAGDTITDLLGKMKEKALAASDCSLNTASFNALKSDFDSLRDQIEKAATSAKFNGVSIADGSTTKLTFLANSDGSGFTVNAKTISLAGIGLTTTSTFTTAAAAKTMIGTIDTALQTATNKLASLGTSSVGLDTHLTFVGKLQDSLDAGVGNLVDADLAKESAKLQSLQTKQQLGVQALSIANQSSSSILSLFR
modifications: post-translational modifications on conserved surface threonine residues, likely O-linked glycans (positions not given)
B1: binds.

Reference: article doi:10.1101/2020.07.27.223248 (bioRxiv, 2020)
